Patent US8734776B2 (ZymoGenetics, Inc., priority 2003, dated 2014)

Tests used:
[1] = test system: encephelomyocarditis virus; experiment: Antiviral assay: cytopathic effect in HeLa cells; assay type: cell-based, human
[2] = test system: encephelomyocarditis virus; experiment: Antiviral assay: cytopathic effect in L929 cells; assay type: cell-based, mouse
[3] = test system: Mouse B cells; experiment: Mouse B cell 3H-thymidine incorporation; assay type: cell-based
Description: Mouse B cells were isolated from 2 Balb/C spleens (7 months old) by depleting CD43+ cells using MACS magnetic beads. Purified B cells were cultured in vitro with LPS, anti-IgM or anti-CD40 monoclonal antibodies. Mouse IL-28 or mouse IFNα was added to the cultures and ^3H-thymidine was added at 48 hrs. and ^3H-thymidine incorporation was measured after 72 hrs. culture.

[4] = test system: AML-12 cells; experiment: ISG induction in mouse liver cell line AML-12 (real-time PCR); assay type: cell-based; settings: 20 ng/ml, 48 hour time point
[5] = test system: adenoviral vector, AdGFP; experiment: Adenoviral (AdGFP) liver pathology in mice; assay type: in vivo, mouse; settings: C57Bl/6 mice
Description: When injected intravenously, these viruses primarily target the liver for gene expression. The adenoviruses are replication deficient, but cause liver damage due to inflammatory cell infiltrate that can be monitored by measurement of serum levels of liver enzymes like AST and ALT, or by direct examination of liver pathology.
C57B116 mice were given once daily intraperitoneal injections of 50 μg mouse IL-28 (zcyto24 as shown in SEQ ID NO:8) or metIL-29C172S—PEG for 3 days. Control animals were injected with PBS. One hour following the 3rd dose, mice were given a single bolus intravenous tail vein injection of the adenoviral vector, AdGFP (1×10^9 plaque-forming units (pfu)). Following this, every other day mice were given an additional dose of PBS, mouse IL-28 or metIL-29C172S—PEG for 4 more doses (total of 7 doses). One hour following the final dose of PBS, mouse IL-28 or metIL-29C172S—PEG mice were terminally bleed and sacrificed. The serum and liver tissue were analyzed. Serum was analyzed for AST and ALT liver enzymes. Liver was isolated and analyzed for GFP expression and histology. For histology, liver specimens were fixed in formalin and then embedded in paraffin followed by H&E staining. Sections of liver that had been blinded to treat were examined with a light microscope. Changes were noted and scored on a scale designed to measure liver pathology and inflammation.

[6] = test system: ISRE signaling in HepG2 cells; settings: 100 ng/ml; 4-hour

B1: zcyto24: mouse IL-28, SEQ ID NO:8 (protein, listed as Mus musculus)
chain: MKPETAGGHMLLLLLPLLLAAVLTRTQADPVPRATRLPVEAKDCHIAQFKSLSPKELQAFKKAKDAIEKRLLEKDLRCSSHLFPRAWDLKQLQVQERPKALQAEVALTLKVWENMTDSALATILGQPLHTLSHIHSQLQTCTQLQATAEPRSPSRRLSRWLHRLQEAQSKETPGCLEASVTSNLFRLLTRDLKCVANGDQCV
modifications: SIGNAL (1)...(28)
[1]; relative CM concentration .008X
  Percentage Cytopathic Effect: 0%
[1]; relative CM concentration .0156X
  Percentage Cytopathic Effect: 0%
[1]; relative CM concentration .0325X
  Percentage Cytopathic Effect: 0%
[1]; relative CM concentration .0625X
  Percentage Cytopathic Effect: 0%
[1]; relative CM concentration .125X
  Percentage Cytopathic Effect: 0%
[1]; relative CM concentration .25X
  Percentage Cytopathic Effect: 0%
[1]; relative CM concentration .5X
  Percentage Cytopathic Effect: 0%
[2]; relative CM conc. .008X
  Percentage Cytopathic Effect: 87%
[2]; relative CM conc. .0156X
  Percentage Cytopathic Effect: 87%
[2]; relative CM conc. .0325X
  Percentage Cytopathic Effect: 87%
[2]; relative CM conc. .0625X
  Percentage Cytopathic Effect: 87%
[2]; relative CM conc. .125X
  Percentage Cytopathic Effect: 87%
[2]; relative CM conc. .25X
  Percentage Cytopathic Effect: 87%
[2]; relative CM conc. .5X
  Percentage Cytopathic Effect: 87%
[3]; stimulated with LPS or anti-IgM, IFNα 10 ng/ml, mouse IL-28 any concentration including 1000 ng/ml
  3H-thymidine incorporation by mouse B cells: did not inhibit
[3]; stimulated with anti-CD40 MAb
  3H thymidine incorporation by mouse B cells: increased
[4]
  Mx1 expression relative to HPRT: 0.08
  OAS expression relative to HPRT: 0.04
  PkR expression relative to HPRT: 0.02
[5]
  liver histology: liver and inflammation scores versus PBS-treated group: lower liver and inflammation scores
[5]; 50 μg i.p., 7 doses, n=8
  average serum AST: 193 U/L
  relative liver fluorescence: 34.5 arbitrary units
  serum ALT: 216 U/L
[6]
  Fold Induction of Cytokine-dependent ISRE Signaling in HepG2 Cells: 4.7 fold
